T1: GST-ABD1+2 of L-plastin (human, UniProt P13796 106-627)
T1 construct: domain: ABD1+2; also called both ABDs combined; combination of the two ABDs; not shown: glutathione S-transferase tag of vector pGEX-2T
T1 sequence (looked up): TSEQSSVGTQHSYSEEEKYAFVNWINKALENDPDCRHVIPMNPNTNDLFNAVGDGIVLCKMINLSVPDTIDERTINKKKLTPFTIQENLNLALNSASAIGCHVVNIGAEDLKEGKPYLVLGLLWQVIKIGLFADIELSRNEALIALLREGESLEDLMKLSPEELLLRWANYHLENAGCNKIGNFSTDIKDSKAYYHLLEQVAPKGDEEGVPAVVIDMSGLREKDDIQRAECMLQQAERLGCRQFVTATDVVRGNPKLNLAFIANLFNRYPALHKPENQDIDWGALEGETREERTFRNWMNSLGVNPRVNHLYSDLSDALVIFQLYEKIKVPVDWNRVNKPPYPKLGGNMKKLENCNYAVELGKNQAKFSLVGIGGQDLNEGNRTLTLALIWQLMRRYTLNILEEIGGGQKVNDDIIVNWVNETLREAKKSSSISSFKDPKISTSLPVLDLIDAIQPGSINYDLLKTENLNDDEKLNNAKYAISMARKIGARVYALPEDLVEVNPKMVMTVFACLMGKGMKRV

B1: L-plastin nanobody 5 (VHH)
VHH: QVQLQESGGGLVQAGDSLRLSCAVSGGTFGRVGVGWFRRAPGKEREFVAAVNWSGISTFYADSVKGRFTISRDDNKHTVDLRMNSLKPEDSAVYFCATDFRFNVPMNGTEYDYWGQGTQVTVSS
notes: Alpaca VHH; His6-tagged recombinant protein (pHEN6c, E. coli) in ITC, gel filtration, pull-down, cross-linking and co-sedimentation; V5-tagged, MOM-V5-tagged or GFP-fused when expressed in PC-3 cells; also called Nb 5; Nb5
B2: human L-plastin (other, UniProt P13796 2-627, looked up)
chain: ARGSVSDEEMMELREAFAKVDTDGNGYISFNELNDLFKAACLPLPGYRVREITENLMATGDLDQDGRISFDEFIKIFHGLKSTDVAKTFRKAINKKEGICAIGGTSEQSSVGTQHSYSEEEKYAFVNWINKALENDPDCRHVIPMNPNTNDLFNAVGDGIVLCKMINLSVPDTIDERTINKKKLTPFTIQENLNLALNSASAIGCHVVNIGAEDLKEGKPYLVLGLLWQVIKIGLFADIELSRNEALIALLREGESLEDLMKLSPEELLLRWANYHLENAGCNKIGNFSTDIKDSKAYYHLLEQVAPKGDEEGVPAVVIDMSGLREKDDIQRAECMLQQAERLGCRQFVTATDVVRGNPKLNLAFIANLFNRYPALHKPENQDIDWGALEGETREERTFRNWMNSLGVNPRVNHLYSDLSDALVIFQLYEKIKVPVDWNRVNKPPYPKLGGNMKKLENCNYAVELGKNQAKFSLVGIGGQDLNEGNRTLTLALIWQLMRRYTLNILEEIGGGQKVNDDIIVNWVNETLREAKKSSSISSFKDPKISTSLPVLDLIDAIQPGSINYDLLKTENLNDDEKLNNAKYAISMARKIGARVYALPEDLVEVNPKMVMTVFACLMGKGMKRV
notes: mature; the assay field says which; also called L-fimbrin; endogenous L-plastin

What was measured:
GST-ABD1+2 of L-plastin = molecular target: T1, GST-ABD1+2 of L-plastin; experiment: ITC, nanobody with GST-tagged L-plastin domain
human L-plastin = molecular target: B2; experiment: ITC, L-plastin titrated with His6-tagged nanobody
[1] = molecular target: the molecule itself; experiment: Superdex 200 HR gel filtration of L-plastin alone

Binder | Kd (GST-ABD1+2 of L-plastin) | Kd (human L-plastin) | binding result [1]
B1 | 46.5 nM | ~40 nM | 
B2 |  |  | binds

From WO2010108824A1 (dated 2010)
